In paper PMC10397247:

What was measured:
[1] = molecular target: T1, 4H918-bH; experiment: two-hybrid library CCNG1;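 note: natural log of median RNA to DNA barcode read ratio; higher means stronger binding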
T1 chain: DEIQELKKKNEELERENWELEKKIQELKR

[2] = molecular target: T2, 4H3843-bH; experiment: two-hybrid library CCNG1;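 note: natural log of median RNA to DNA barcode read ratio; higher means stronger binding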
T2 chain: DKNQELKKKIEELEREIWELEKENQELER

[3] = molecular target: T3, 4H462-bH; experiment: two-hybrid library CCNG1;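 note: natural log of median RNA to DNA barcode read ratio; higher means stronger binding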
T3 chain: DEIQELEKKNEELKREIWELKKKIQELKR

[4] = molecular target: T4, 4H797-bH; experiment: two-hybrid library CCNG1;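 note: natural log of median RNA to DNA barcode read ratio; higher means stronger binding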
T4 chain: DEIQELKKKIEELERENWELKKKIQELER

[5] = molecular target: T5, 4H4001-bH; experiment: two-hybrid library CCNG1;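 note: natural log of median RNA to DNA barcode read ratio; higher means stronger binding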
T5 chain: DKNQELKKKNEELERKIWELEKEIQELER

[6] = molecular target: T6, 4H687-bH; experiment: two-hybrid library CCNG1;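 note: natural log of median RNA to DNA barcode read ratio; higher means stronger binding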
T6 chain: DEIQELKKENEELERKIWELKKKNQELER

[7] = molecular target: T7, 4H568-bH; experiment: two-hybrid library CCNG1
T7 chain: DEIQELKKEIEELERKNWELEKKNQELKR

[8] = molecular target: T8, 4H3782-bH; experiment: two-hybrid library CCNG1
T8 chain: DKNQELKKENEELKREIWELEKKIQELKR

[9] = molecular target: T9, 4H717-bH; experiment: two-hybrid library CCNG1
T9 chain: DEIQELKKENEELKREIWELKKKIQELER

[10] = molecular target: T10, 4H754-bH; experiment: two-hybrid library CCNG1
T10 chain: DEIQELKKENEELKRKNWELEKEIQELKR

[11] = molecular target: T11, 4H3855-bH; experiment: two-hybrid library CCNG1
T11 chain: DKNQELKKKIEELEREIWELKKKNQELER

[12] = molecular target: T12, 4H967-bH; experiment: two-hybrid library CCNG1
T12 chain: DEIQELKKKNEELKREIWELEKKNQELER

[13] = molecular target: T13, 4H72-bH; experiment: two-hybrid library CCNG1
T13 chain: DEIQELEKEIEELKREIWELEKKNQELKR

[14] = molecular target: T14, 4H454-bH; experiment: two-hybrid library CCNG1
T14 chain: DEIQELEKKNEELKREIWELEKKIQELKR

[15] = molecular target: T15, 4H607-bH; experiment: two-hybrid library CCNG1
T15 chain: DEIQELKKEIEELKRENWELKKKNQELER

[16] = molecular target: T16, 4H953-bH; experiment: two-hybrid library CCNG1
T16 chain: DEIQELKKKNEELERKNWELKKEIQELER

[17] = molecular target: T17, 4H883-bH; experiment: two-hybrid library CCNG1
T17 chain: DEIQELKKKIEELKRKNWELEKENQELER

[18] = molecular target: T18, 4H908-bH; experiment: two-hybrid library CCNG1
T18 chain: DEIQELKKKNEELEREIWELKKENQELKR

[19] = molecular target: T19, 4H3625-AA; experiment: two-hybrid library CCmax; conditions: mean of both orientations
T19 chain: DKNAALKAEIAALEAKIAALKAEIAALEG

[20] = molecular target: T20, 4H3940-AA; experiment: two-hybrid library CCmax; conditions: mean of both orientations
T20 chain: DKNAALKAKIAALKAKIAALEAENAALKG

[21] = molecular target: T21, 4H87-AA; experiment: two-hybrid library CCmax; conditions: mean of both orientations
T21 chain: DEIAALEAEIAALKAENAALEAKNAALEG

[22] = molecular target: T22, 4H510-AA; experiment: two-hybrid library CCmax; conditions: mean of both orientations
T22 chain: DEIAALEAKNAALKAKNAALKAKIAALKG

[23] = molecular target: T23, 4H3409-AA; experiment: two-hybrid library CCmax; conditions: mean of both orientations
T23 chain: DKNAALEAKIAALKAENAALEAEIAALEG

[24] = molecular target: T24, 4H816-AA; experiment: two-hybrid library CCmax; conditions: mean of both orientations
T24 chain: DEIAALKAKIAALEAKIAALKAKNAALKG

[25] = molecular target: T25, 4H775-AA; experiment: two-hybrid library CCmax; conditions: mean of both orientations
T25 chain: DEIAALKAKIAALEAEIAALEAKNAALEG

[26] = molecular target: T26, 4H3134-AA; experiment: two-hybrid library CCmax
T26 chain: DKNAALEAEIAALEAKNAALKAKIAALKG

[27] = molecular target: T27, 4H390-AA; experiment: two-hybrid library CCmax; conditions: mean of both orientations
T27 chain: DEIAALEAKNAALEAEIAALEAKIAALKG

[28] = molecular target: T28, 4H909-AA; experiment: two-hybrid library CCmax; conditions: mean of both orientations
T28 chain: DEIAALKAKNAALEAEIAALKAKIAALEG

[29] = molecular target: T29, 4H2698-AA; experiment: two-hybrid library CCmax; conditions: mean of both orientations
T29 chain: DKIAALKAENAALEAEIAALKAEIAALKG

[30] = molecular target: T30, 4H3381-AA; experiment: two-hybrid library CCmax; conditions: mean of both orientations
T30 chain: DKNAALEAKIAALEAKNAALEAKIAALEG

[31] = molecular target: T31, 4H3016-AA; experiment: two-hybrid library CCmax; conditions: mean of both orientations
T31 chain: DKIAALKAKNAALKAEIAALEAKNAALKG

[32] = molecular target: T32, 4H3009-AA; experiment: two-hybrid library CCmax; conditions: mean of both orientations
T32 chain: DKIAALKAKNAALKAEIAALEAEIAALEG

[33] = molecular target: T33, 4H3697-AA; experiment: two-hybrid library CCmax; conditions: mean of both orientations
T33 chain: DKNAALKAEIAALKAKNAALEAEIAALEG

[34] = molecular target: T34, 4H710-AA; experiment: two-hybrid library CCmax; conditions: mean of both orientations
T34 chain: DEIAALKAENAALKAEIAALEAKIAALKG

[35] = molecular target: T35, 4H3120-AA; experiment: two-hybrid library CCmax; conditions: mean of both orientations
T35 chain: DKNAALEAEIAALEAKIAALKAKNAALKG

[36] = molecular target: T36, 4H2438-AA; experiment: two-hybrid library CCmax; conditions: mean of both orientations
T36 chain: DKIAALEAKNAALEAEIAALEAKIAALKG

[37] = molecular target: T37, 4H930-AA; experiment: two-hybrid library CCmax; conditions: mean of both orientations
T37 chain: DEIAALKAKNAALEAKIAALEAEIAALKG

[38] = molecular target: T38, 4H2865-AA; experiment: two-hybrid library CCmax; conditions: mean of both orientations
T38 chain: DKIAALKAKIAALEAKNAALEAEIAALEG

[39] = molecular target: T39, 4H2389-AA; experiment: two-hybrid library CCmax; conditions: mean of both orientations
T39 chain: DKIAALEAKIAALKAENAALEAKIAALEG

[40] = molecular target: T40, 4H458-AA; experiment: two-hybrid library CCmax; conditions: mean of both orientations
T40 chain: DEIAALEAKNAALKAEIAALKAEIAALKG

[41] = molecular target: T41, 4H2330-AA; experiment: two-hybrid library CCmax; conditions: mean of both orientations
T41 chain: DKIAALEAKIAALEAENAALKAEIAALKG

[42] = molecular target: T42, 4H3753-AA; experiment: two-hybrid library CCmax; conditions: mean of both orientations
T42 chain: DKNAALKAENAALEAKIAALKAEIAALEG

[43] = molecular target: T43, 4H629-AA; experiment: two-hybrid library CCmax; conditions: mean of both orientations
T43 chain: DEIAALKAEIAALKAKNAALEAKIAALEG

[44] = molecular target: T44, 4H3395-AA; experiment: two-hybrid library CCmax; conditions: mean of both orientations
T44 chain: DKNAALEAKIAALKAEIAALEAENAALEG

[45] = molecular target: T45, 4H3590-AA; experiment: two-hybrid library CCmax; conditions: mean of both orientations
T45 chain: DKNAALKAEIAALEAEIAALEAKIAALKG

[46] = molecular target: T46, 4H2274-AA; experiment: two-hybrid library CCmax
T46 chain: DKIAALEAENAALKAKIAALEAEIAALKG

[47] = molecular target: T47, 4H3130-AA; experiment: two-hybrid library CCmax; conditions: mean of both orientations
T47 chain: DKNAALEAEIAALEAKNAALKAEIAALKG

[48] = molecular target: T48, 4H3865-AA; experiment: two-hybrid library CCmax; conditions: mean of both orientations
T48 chain: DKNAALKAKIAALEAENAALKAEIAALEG

[49] = molecular target: T49, 4H3165-AA; experiment: two-hybrid library CCmax; conditions: mean of both orientations
T49 chain: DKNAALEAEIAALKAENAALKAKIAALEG

[50] = molecular target: T50, 4H891-AA; experiment: two-hybrid library CCmax; conditions: mean of both orientations
T50 chain: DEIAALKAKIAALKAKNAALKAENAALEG

[51] = molecular target: T51, 4H570-AA; experiment: two-hybrid library CCmax; conditions: mean of both orientations
T51 chain: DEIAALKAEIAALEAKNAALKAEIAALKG

[52] = molecular target: T52, 4H3410-AA; experiment: two-hybrid library CCmax; conditions: mean of both orientations
T52 chain: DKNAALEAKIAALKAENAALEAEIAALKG

[53] = molecular target: T53, 4H310-AA; experiment: two-hybrid library CCmax; conditions: mean of both orientations
T53 chain: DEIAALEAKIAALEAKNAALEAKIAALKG

[54] = molecular target: T54, 4H745-AA; experiment: two-hybrid library CCmax; conditions: mean of both orientations
T54 chain: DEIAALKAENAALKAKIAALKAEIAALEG

[55] = molecular target: T55, 4H536-AA; experiment: two-hybrid library CCmax; conditions: mean of both orientations
T55 chain: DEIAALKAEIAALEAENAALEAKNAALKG

[56] = molecular target: T56, 4H2473-AA; experiment: two-hybrid library CCmax; conditions: mean of both orientations
T56 chain: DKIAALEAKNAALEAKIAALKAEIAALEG

[57] = molecular target: T57, 4H485-AA; experiment: two-hybrid library CCmax; conditions: mean of both orientations
T57 chain: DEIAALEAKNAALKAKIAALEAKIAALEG

[58] = molecular target: T58, 4H850-AA; experiment: two-hybrid library CCmax; conditions: mean of both orientations
T58 chain: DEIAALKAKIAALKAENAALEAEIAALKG

[59] = molecular target: T59, 4H2725-AA; experiment: two-hybrid library CCmax; conditions: mean of both orientations
T59 chain: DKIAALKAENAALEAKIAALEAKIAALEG

[60] = molecular target: T60, 4H2277-AA; experiment: two-hybrid library CCmax
T60 chain: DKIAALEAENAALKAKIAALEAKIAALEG

[61] = molecular target: T61, 4H2649-AA; experiment: two-hybrid library CCmax; conditions: mean of both orientations
T61 chain: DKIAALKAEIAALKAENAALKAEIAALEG

[62] = molecular target: T62, 4H94-AA; experiment: two-hybrid library CCmax; conditions: mean of both orientations
T62 chain: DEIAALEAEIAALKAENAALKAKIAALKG

[63] = molecular target: T63, 4H797-AA; experiment: two-hybrid library CCmax; conditions: mean of both orientations
T63 chain: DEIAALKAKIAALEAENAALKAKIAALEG

[64] = molecular target: T64, O8-bH; experiment: two-hybrid library CCNG1
T64 chain: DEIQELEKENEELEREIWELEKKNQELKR

[65] = molecular target: T65, O9-bH; experiment: two-hybrid library CCNG1
T65 chain: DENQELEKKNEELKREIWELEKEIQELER

[66] = molecular target: T66, 4H3855-bA; experiment: two-hybrid library CCNG1
T66 chain: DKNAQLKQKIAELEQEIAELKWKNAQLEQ

DKNQELKKENEELKREIWELEKKIQELKR [4H3782-bH]
interaction score [1]: -0.854
interaction score [2]: 0.943
interaction score [3]: 1.71
interaction score [4]: -0.446
interaction score [5]: 0.67
interaction score [6]: 0.418
interaction score [7]: 0.164
interaction score [8]: 0.738
interaction score [9]: 0.481
interaction score [10]: 0.775
interaction score [11]: 0.0378
interaction score [12]: -0.136
interaction score [13]: 1.04
interaction score [14]: 1.75
interaction score [15]: 0.717
interaction score [16]: -0.497
interaction score [17]: -0.532
interaction score [18]: -1.78

DKNAALEAEIAALEAKNAALKAKIAALKG [4H3134-AA]
interaction score [19]: -0.878
interaction score [20]: -1.19
interaction score [21]: -0.703
interaction score [22]: -2.21
interaction score [23]: 1.96
interaction score [24]: -0.115
interaction score [25]: -0.634
interaction score [26]: -0.475
interaction score [27]: -0.0241

DKIAALEAENAALKAKIAALEAEIAALKG [4H2274-AA]
interaction score [28]: -1.73
interaction score [29]: 0.894
interaction score [30]: -1.35
interaction score [31]: -1.01
interaction score [32]: 0.108
interaction score [33]: -1.45
interaction score [34]: 0.53
interaction score [35]: -1.33
interaction score [36]: 0.189
interaction score [37]: -1.05
interaction score [38]: -1.31
interaction score [39]: -0.987
interaction score [40]: 0.0218
interaction score [41]: -1.13
interaction score [42]: -1.17
interaction score [43]: -1.47
interaction score [44]: -1.6
interaction score [45]: -0.977
interaction score [46]: 2.45
interaction score [47]: -1.87
interaction score [48]: -0.926
interaction score [49]: -1.19
interaction score [50]: -1.73
interaction score [51]: -1.8
interaction score [52]: -1.36
interaction score [53]: -1.25
interaction score [54]: 0.497
interaction score [55]: -1.54
interaction score [56]: -0.485
interaction score [57]: -0.34
interaction score [58]: -1.39
interaction score [59]: 0.181
interaction score [60]: 0.21
interaction score [61]: -1.69
interaction score [62]: -1.32
interaction score [63]: -1.27

DEIQELEKENEELEREIWELEKKNQELKR [O8-bH]
interaction score [64]: 0.991
interaction score [65]: 0.486

DKNQELKKKIEELEREIWELEKENQELER [4H3843-bH]
interaction score [1]: -2.64
interaction score [2]: -0.634
interaction score [3]: -0.193
interaction score [66]: 1.29
interaction score [4]: -0.437
interaction score [5]: -0.099
interaction score [6]: -0.585
interaction score [7]: -1.1
interaction score [12]: -0.0277
interaction score [13]: -0.557
interaction score [15]: -2.13
interaction score [16]: -0.885
interaction score [17]: -0.346
